B1: target 1 insG 3' of 11,insA 3' of 3 (mixed)
RNA 1: CACCCGUGCAAAAAUGCAGGGGUCUAAAACUGAGCGGAUAACCUCUCUAUGG
RNA 2: GGGAAUGGAUCCACAUCUACGAAUUCGUACCAUAGAGAGGUGUAUCCGCUACACCGAGAUCGGAAGAGCACACGU
B2: target 1 insG 3' of 18,insA 3' of 4 (mixed)
RNA 1: B1 RNA 1
RNA 2: B1 RNA 2 with A36G, G37A, A38G, G39A, U41G, G42U, U50A, A51U
B3: target 1 U8G,G17U (mixed)
RNA 1: B1 RNA 1
RNA 2: GGGAAUGGAUCCACAUCUACGAAUUCGUACCAUAUAGAGGUUAGCCGCUCACCGAGAUCGGAAGAGCACACGU
B4: target 1 insA 3' of 15,insA 3' of 4 (mixed)
RNA 1: B1 RNA 1
RNA 2: B1 RNA 2 with G39A, U41G, G42U, U50A, A51U
B5: target 1 insU 3' of 14,insC 3' of 12 (mixed)
RNA 1: B1 RNA 1
RNA 2: GGGAAUGGAUCCACAUCUACGAAUUCGUACCAUAGAGAUGGCUUAUCCGCUCACCGAGAUCGGAAGAGCACACGU
B6: target 1 A18U,C21U (mixed)
RNA 1: B1 RNA 1
RNA 2: B3 RNA 2 with C31U, A34U, U35G, G44U
B7: target 1 insC 3' of 12,insU 3' of 9 (mixed)
RNA 1: B1 RNA 1
RNA 2: B5 RNA 2 with U39G, G41C, C42U, U44A, A45U
B8: target 1 C7U,C21U (mixed)
RNA 1: B1 RNA 1
RNA 2: B3 RNA 2 with C31U, U35G, G44U, C45U
B9: target 1 insG 3' of 14,insA 3' of 2 (mixed)
RNA 1: B1 RNA 1
RNA 2: B1 RNA 2 with U41G, G42U, A51C, C52A
B10: target 1 C7A,U8C (mixed)
RNA 1: B1 RNA 1
RNA 2: B3 RNA 2 with U35G, G44C, C45A
B11: target 1 insC 3' of 10,insA 3' of 3 (mixed)
RNA 1: B1 RNA 1
RNA 2: B1 RNA 2 with G42U, U43C
B12: target 1 insU 3' of 17,insC 3' of 15 (mixed)
RNA 1: B1 RNA 1
RNA 2: B5 RNA 2 with A36U, G37A, A38G, U39C, G40A, C42G
B13: target 1 insG 3' of 10,insG 3' of 3 (mixed)
RNA 1: B1 RNA 1
RNA 2: B1 RNA 2 with G42U, U43G, A51G
B14: target 1 C4U,G12U (mixed)
RNA 1: B1 RNA 1
RNA 2: B3 RNA 2 with U35G, G40U, G44U, C48U
B15: target 1 A9C,A18U (mixed)
RNA 1: B1 RNA 1
RNA 2: B3 RNA 2 with A34U, U35G, A43C, G44U
B16: target 1 U3A,G12A (mixed)
RNA 1: B1 RNA 1
RNA 2: B3 RNA 2 with U35G, G40A, G44U, U49A
B17: target 1 U8C,U11A (mixed)
RNA 1: B1 RNA 1
RNA 2: B3 RNA 2 with U35G, U41A, G44C
B18: target 1 A1G,A18G (mixed)
RNA 1: B1 RNA 1
RNA 2: B3 RNA 2 with A34G, U35G, G44U, A51G
B19: target 1 G12A,G15U (mixed)
RNA 1: B1 RNA 1
RNA 2: B3 RNA 2 with U35G, G37U, G40A, G44U
B20: target 1 insA 3' of 12,insG 3' of 3 (mixed)
RNA 1: B1 RNA 1
RNA 2: B1 RNA 2 with U41A, G42U, A51G
B21: target 1 insG 3' of 14,insG 3' of 3 (mixed)
RNA 1: B1 RNA 1
RNA 2: B1 RNA 2 with U41G, G42U, A51G
B22: target 1 insA 3' of 13,insU 3' of 12 (mixed)
RNA 1: B1 RNA 1
RNA 2: B5 RNA 2 with U39G, G40A, C42U
B23: target 1 G5C,G15C (mixed)
RNA 1: B1 RNA 1
RNA 2: B3 RNA 2 with U35G, G37C, G44U, G47C
B24: target 1 C6U,G15U (mixed)
RNA 1: B1 RNA 1
RNA 2: B3 RNA 2 with U35G, G37U, G44U, C46U
B25: target 1 insA 3' of 21,insG 3' of 20 (mixed)
RNA 1: B1 RNA 1
RNA 2: B5 RNA 2 with U33A, A34G, G35U, U39G, G40A, C42G
B26: target 1 C4A,C22A (mixed)
RNA 1: B1 RNA 1
RNA 2: B3 RNA 2 with C30A, U35G, G44U, C48A
B27: target 1 C2G,G15U (mixed)
RNA 1: B1 RNA 1
RNA 2: B3 RNA 2 with U35G, G37U, G44U, C50G
B28: target 1 insA 3' of 10,insU 3' of 2 (mixed)
RNA 1: B1 RNA 1
RNA 2: B1 RNA 2 with G42U, U43A, A51C, C52U
B29: target 1 insU 3' of 17,insA 3' of 17 (mixed)
RNA 1: B1 RNA 1
RNA 2: B5 RNA 2 with A36U, G37A, U39G, G40A, C42G
B30: target 1 C2A,U10A (mixed)
RNA 1: B1 RNA 1
RNA 2: B3 RNA 2 with U35G, U42A, G44U, C50A
B31: target 1 insU 3' of 15,insG 3' of 2 (mixed)
RNA 1: B1 RNA 1
RNA 2: B1 RNA 2 with A38U, G39A, U41G, G42U, A51C, C52G
B32: target 1 C2U,A18C (mixed)
RNA 1: B1 RNA 1
RNA 2: B3 RNA 2 with A34C, U35G, G44U, C50U
B33: target 1 insU 3' of 18,insU 3' of 5 (mixed)
RNA 1: B1 RNA 1
RNA 2: GGGAAUGGAUCCACAUCUACGAAUUCGUACCAUAUGAGAGGUUAUCCGUCUCACCGAGAUCGGAAGAGCACACGU

Where a chain is given by its changes, count along the chain named. Names may count otherwise.

For 33 molecules, Kd results are on record in PMC10786891, “Massively parallel profiling of RNA-targeting CRISPR-Cas13d”.

This series addresses T1, EsCas13d, nuclease-dead (Eubacterium siraeum, UniProt B0MS50, R295A;H300A;R849A;H854A).
T1 sequence: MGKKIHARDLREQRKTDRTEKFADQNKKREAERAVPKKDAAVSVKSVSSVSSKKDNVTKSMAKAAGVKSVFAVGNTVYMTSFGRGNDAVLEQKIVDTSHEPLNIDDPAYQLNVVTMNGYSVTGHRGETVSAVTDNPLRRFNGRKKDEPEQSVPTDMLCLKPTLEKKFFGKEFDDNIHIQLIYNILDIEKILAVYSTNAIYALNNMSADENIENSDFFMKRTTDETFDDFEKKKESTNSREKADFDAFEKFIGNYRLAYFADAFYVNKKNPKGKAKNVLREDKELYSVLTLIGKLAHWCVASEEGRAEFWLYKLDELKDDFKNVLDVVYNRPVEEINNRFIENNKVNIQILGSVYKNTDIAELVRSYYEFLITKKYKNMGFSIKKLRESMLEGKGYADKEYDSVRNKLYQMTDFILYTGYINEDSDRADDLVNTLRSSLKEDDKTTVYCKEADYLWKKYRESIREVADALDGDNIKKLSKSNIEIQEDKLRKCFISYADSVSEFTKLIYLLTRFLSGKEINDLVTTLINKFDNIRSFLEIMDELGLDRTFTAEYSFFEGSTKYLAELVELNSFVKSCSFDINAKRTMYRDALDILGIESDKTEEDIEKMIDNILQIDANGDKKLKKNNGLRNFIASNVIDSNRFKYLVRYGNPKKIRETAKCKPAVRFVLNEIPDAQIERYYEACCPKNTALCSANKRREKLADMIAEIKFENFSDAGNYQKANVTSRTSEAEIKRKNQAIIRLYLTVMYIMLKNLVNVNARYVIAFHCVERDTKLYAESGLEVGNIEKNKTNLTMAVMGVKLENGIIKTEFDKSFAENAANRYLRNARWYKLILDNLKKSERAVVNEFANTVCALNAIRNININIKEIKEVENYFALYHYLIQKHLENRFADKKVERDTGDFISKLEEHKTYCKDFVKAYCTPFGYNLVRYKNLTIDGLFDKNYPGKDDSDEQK
The experiment in a line: crRNA (strand 1, pre-loaded); Mg2+; 40 mM Tris-HCl pH 7.5, 150 mM NaCl, 6 mM MgCl2, 1 mM DTT, 0.1% Tween-20, 0.2 mg/ml BSA; 25 C; 10 min per concentration, then washed. To be noted: tags: His6-TwinStrep-SUMO cleaved; N-terminal SNAP kept (SNAP-Surface 488); label: 3' end held by stalled T7 RNA polymerase.
With B1, binding was put at a Kd of 17.5 ± 1.2 nM.

B2 gave a Kd of 43 ± 5 nM.

B3 registered a Kd of 91 ± 14 nM.

B4 registered a dissociation constant Kd of 7.7 ± 0.9 nM.

B5 gave a Kd of 50 ± 10 nM.

In the case of B6, binding was characterised by a dissociation constant (Kd) of 6.5 ± 0.32 nM.

As to B7, the dissociation constant Kd came to 14 ± 2.2 nM.

In the case of B8, the Kd is 6 ± 0.4 nM.

B9 came in with a dissociation constant (Kd) of 13.3 ± 1.6 nM.

In turn, B10 displayed a Kd of 9 ± 0.4 nM.

Turning to B11, the Kd was determined as 12.9 ± 0.6 nM.

As to B12, the affinity, expressed as Kd, was 26.1 ± 1.8 nM.

As to B13, the Kd was 28.4 ± 2.8 nM.

Take B14: the Kd came to 36 ± 8 nM.

Regarding B15, binding was characterised by a dissociation constant (Kd) of 63 ± 10 nM.

The molecule B16 returned a Kd of 4.12 ± 0.33 nM.

In the case of B17, the Kd came to 32.5 ± 3.2 nM.

As to B18, the affinity, expressed as Kd, was 74 ± 21 nM.

For B19, the affinity, expressed as Kd, was 18.7 ± 2.5 nM.

As for B20, the dissociation constant (Kd) came out at 18.7 ± 1.6 nM.

In the case of B21, the dissociation constant Kd came out at 7.9 ± 0.4 nM.

B22 showed an equilibrium dissociation constant (Kd) of 4.2 ± 0.5 nM.

As to B23, the Kd stood at 38 ± 5 nM.

As for B24, the Kd was found to be 32.9 ± 1.9 nM.

The molecule B25 showed a dissociation constant (Kd) of 24 ± 4 nM.

For the molecule B26, binding was characterised by a dissociation constant (Kd) of 5.7 ± 0.8 nM.

B27 came in with a Kd of 33 ± 13 nM.

Consider B28, for which the Kd turned out to be 13.8 ± 0.7 nM.

The molecule B29 had an equilibrium dissociation constant (Kd) of 30.5 ± 2.2 nM.

In the case of B30, binding was put at a Kd of 13.9 ± 0.8 nM.

As for B31, the affinity, expressed as Kd, was 9.7 ± 0.7 nM.

Take B32: the equilibrium dissociation constant (Kd) was found to be 48.9 ± 2.9 nM.

Take B33: the Kd came to 48 ± 5 nM.

A word on the Kd: it is the free concentration of one partner at which half of the binding sites on the other are occupied at equilibrium, for simple one-to-one binding. Low readings indicate tighter binding, high ones weaker binding.
